Experimental data from patent US20140323392A1 (UNIVERSITY OF UTAH RESEARCH FOUNDATION, published 2014).
Bridges are numbered along the chain shown (N, C = ends). [ ]: non-standard residue; d: D form.

B1: N0N(PIE7)2 (peptide)
peptide: Ac-[dK]G[dA][dC][dD][dY][dP][dE][dW][dQ][dW][dL][dC][dA][dA]-NH2
modifications: disulfide 4-13 (inferred); also: dimer, N- to N-terminal link by zero length spacer
B2: PEG5-(PIE13)2 (peptide)
peptide: Ac-[dH][dP][dC][dD][dY][dP][dE][dW][dQ][dW][dL][dC]K[dL]G[dK]-NH2
modifications: disulfide 3-12 (inferred); not fully specified (residue 13); also: dimer crosslinked by PEG5 via internal Lys

Experiments:
[1] = molecular target: HIV-1 JRFL envelope glycoprotein gp41 (N-trimer of the prehairpin intermediate) (HIV-1 strain JRFL); experiment: cell-based or functional assay
[2] = molecular target: HIV-1 HXB2 envelope glycoprotein gp41 (N-trimer of the prehairpin intermediate) (HIV-1 strain HXB2, UniProt P04578 512-856); experiment: cell-based or functional assay

Binder | IC50, JRFL pseudovirion entry [1] [nM] | IC50, HXB2 pseudovirion entry [2] [nM]
Ac-[dH][dP][dC][dD][dY][dP][dE][dW][dQ][dW][dL][dC][dK][dL]G[dK]-NH2 (disulfide 3-12 (inferred)) [PIE13] | 1470 | 41
Ac-[dK][dK]G[dA][dC][dD][dY][dP][dE][dW][dR][dW][dL][dC][dA][dA]-NH2 (disulfide 5-14 (inferred)) [2K-PIE2] |  | 2.6
Ac-G[dA][dC][dD][dY][dP][dE][dW][dQ][dW][dL][dC][dA][dA]G[dK]-NH2 (disulfide 3-12 (inferred); also: dimer, C- to C-terminal link by PEG5 spacer) [C5C(PIE7-GK)2] | 200 | 0.36
Ac-[dK]G[dA][dC][dD][dY][dP][dE][dW][dQ][dW][dL][dC][dA][dA]-NH2 (disulfide 4-13 (inferred)) [PIE7] | 24000 | 620
Ac-G[dA][dC][dD][dY][dP][dE][dW][dQ][dW][dL][dC][dA][dA]G[dK]-NH2 (disulfide 3-12 (inferred); also: PEG4 attached at the C-terminus) [PIE7-GK-PEG4] | 13100 | 350
Ac-[dK]G[dA][dC][dD][dY][dP][dE][dW][dQ][dW][dL][dC][dA][dA]G[dK]-NH2 (disulfide 4-13 (inferred)) [K-PIE7-GK] | 14800 | 
B1 | 1090 | 0.8
Ac-[dK]G[dA][dC][dD][dY][dP][dE][dW][dR][dW][dL][dC][dA][dA]-NH2 (disulfide 4-13 (inferred)) [PIE2] | 66000 | 
Ac-[dK]G[dA][dC][dD][dY][dP][dE][dW][dQ][dW][dL][dC][dA][dA]-NH2 (disulfide 4-13 (inferred); also: dimer linked N- to C-terminal by PEG5 spacer) [N5C(PIE7)2] | 300 | 0.58
Ac-[dH][dP][dC][dD][dY][dP][dE][dW][dQ][dW][dL][dC][dR][dL]G[dK]-NH2 (disulfide 3-12 (inferred)) [PIE14] | 1050 | 33
Ac-G[dA][dC][dD][dY][dP][dE][dW][dQ][dW][dL][dC][dA][dA]G[dK][dK]-NH2 (disulfide 3-12 (inferred)) [PIE7-GKK] | 19100 | 380
Ac-[dK]G[dA][dC][dD][dY][dP][dE][dW][dQ][dW][dL][dC][dA][dA]-NH2 (disulfide 4-13 (inferred); also: dimer, N- to N-terminal link by PEG5 spacer) [N5N(PIE7)2] | 1410 | 1.1
Ac-[dK]G[dA][dC][dD][dY][dP][dE][dW][dR][dW][dL][dC][dA][dA][dA]-NH2 (disulfide 4-13 (inferred)) [PIE2-AAA] |  | 1.4
Ac-[dK]G[dA][dC][dD][dY][dK][dE][dW][dQ][dW][dL][dC][dA][dA]-NH2 (disulfide 4-13 (inferred)) [PIE8] | ~110000 | 1.7
Ac-G[dA][dC][dD][dY][dP][dE][dW][dQ][dW][dL][dC][dA][dA]G[dK]-NH2 (disulfide 3-12 (inferred)) [PIE7-GK] | 15800 | 390
Ac-G[dA][dC][dD][dY][dP][dE][dW][dQ][dW][dL][dC][dA][dA]G[dK]-NH2 (disulfide 3-12 (inferred); also: dimer, C- to C-terminal link by PEG9 spacer) [C9C(PIE7-GK)2] | 220 | 0.35
Ac-[dK]G[dA][dC][dD][dY][dP][dE][dW][dQ][dW][dL][dC][dA][dA]-NH2 (disulfide 4-13 (inferred); also: dimer linked N- to C-terminal by PEG9 spacer) [N9C(PIE7)2] | 310 | 0.33
Ac-[dH][dA][dC][dD][dY][dP][dE][dW][dQ][dW][dL][dC][dE][dL]G[dK]-NH2 (disulfide 3-12 (inferred)) [PIE15] | 1450 | 67
B2 | 15 | 
Ac-[dK][dK]G[dA][dC][dE][dL][dL]G[dW][dE][dW][dA][dW][dL][dC][dA][dA]-NH2 (disulfide 5-16 (inferred)) [D10-p5] | > 25000 | 9.5
Ac-[dH][dP][dC][dD][dY][dP][dE][dW][dQ][dW][dL][dC][dE][dL]G[dK]-NH2 (disulfide 3-12 (inferred); also: dimer, C- to C-terminal link by PEG5 spacer) [C5C(PIE12)2] | 14 | 
Ac-[dK][dK]G[dA][dC][dE][dS][dP][dE][dW][dR][dW][dL][dC][dA][dA]-NH2 (disulfide 5-14 (inferred)) [2K-PIE1] | > 100000 | 2.2
